Experimental data: the nanobody polyreactivity screen of Harvey et al. (2022)

Test: yeast display, Sf9 membrane polyspecificity reagent, FACS + sequencing; frameworks hold sequencing errors
Method in brief: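 Genes from sorted yeast were amplified by colony PCR, read by MiSeq 2 × 250 sequencing and filtered on CDR length. These cells carried a synthetic nanobody library in Saccharomyces cerevisiae BJ5465 and were sorted by FACS into low and high (top ~1%) gates on anti-HA and streptavidin fluorescence. Polyreactivity is labelled according to the gate of origin.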
With “QVQLVESGGGLVQAGGSLRLSCAASGRTLSRYAMGWYRQAPGKEREFVAGISASGGRTYYADSVKGRFTISRDNAKNTVYLQMNSLKPEDTAVYYCAAQLPWAGGKYDYWGQGTQVTVSS” the “polyreactivity (PSR sort gate)” value was “high polyreactivity”. For “QVQLVESGGGLVQAGGSLRLSCAASGRTLSTNGMGWYRQAPGKERELVATITRRGGRTYYADSVKGRFTISRDNAKNTVYLQMNSLKPEDTAVYYCATEQADRRVTYKYWGQGTQVTVSS”, the “polyreactivity (PSR sort gate)” value was “high polyreactivity”. In the case of “QVQLVESGGGLVQAGGSLRLSCAASGRTLSYYARGWYRQAPGKERELVASIRRRTGSTYYAESVKGRFTISRDNAKNSVYLQMNSLTPEDTAVYYCAADLIYYGEYDYWGQGTQVTVSS”, the “polyreactivity (PSR sort gate)” value is reported as “high polyreactivity”. With “QVQLVESGGGLVQAGGSLRLSCAASGRTLTKYVMGWYRQAPGKEREFVAAISSSGDSTYYADSVKGRFTISRDNAKNPVYLQMNSLKQEDTAVYYCAKYDRNTYCYWGQCTQVTVSS” the “polyreactivity (PSR sort gate)” value was “low polyreactivity”. In the case of “QVQLVESGGGLVQAGGSLRLSCAASGRTLTSNAMGWYRQAPGKERELVASITGSSSNTYYADSVKGRFTISRDNAKNTVYLQMNSLKPEDTAVYYCAAEVGFPWWRLDEYWGQGTQVTVSS”, the “polyreactivity (PSR sort gate)” value is reported as “low polyreactivity”. With “QVQLVESGGGLVQAGGSLRLSCAASGRTLVKYAMGRYRPAPGKERELVAALTQRGGITYYADSVKGRFTISRDNAKNTVYLQMNSLKPEDTAVYYCAASLYSYRSPYTFYYWGQGTQVTVSS” the “polyreactivity (PSR sort gate)” value was “high polyreactivity”. For “QVQLVESGGGLVQAGGSLRLSCAASGRTLVRNVMGWYRQAPGKERELVAAISRSGGSTYYADSVKGRFTISRDNAKNTVYLQMNSLKPEDTAVYYCAAATKSNGAPIFDSWGQGTQVTVSS”, the “polyreactivity (PSR sort gate)” value was “high polyreactivity”. For “QVQLVESGGGLVQAGGSLRLSCAASGRTLVVNDMGWYRQAPGKERELVADINWSGGRTYYADSVKGRFTISRDNAKNTVYLQMNSLKPEDTAVYYCAADLSWRQYYREYDYWGQGTEVTVSS”, the “polyreactivity (PSR sort gate)” value was “high polyreactivity”. In the case of “QVQLVESGGGLVQAGGSLRLSCAASGRTLVYYAMGWYRQAPGKERELVAAITSVGSTNYADSVKGRFTISRDNAKNTVYLQMNSLKPEDTAVYYCAADRTYRFYYTQGYEYWGQGTQVTVSS”, the “polyreactivity (PSR sort gate)” value is reported as “low polyreactivity”. For “QVQLVESGGGLVQAGGSLRLSCAASGRTLWWYAMAWYRQAPGKERELVAAIDYSDGNTYYADSVKGRFTISRDNAKNTVYLQMNSLKPEDTAVYYCAAEGYYNYGSYYWGQGTQVTVSS”, the “polyreactivity (PSR sort gate)” value was “high polyreactivity”. In the case of “QVQLVESGGGLVQAGGSLRLSCAASGRTLWYYTMGWYRQAPGKERELVADITRGTSTNYADSVKGRFTISRDNAKNTVYLQMNSLKPEDTAVYYCNRAHGRSRYSRDYDSWGQGTQVTVSS”, the “polyreactivity (PSR sort gate)” value is reported as “low polyreactivity”. For “QVQLVESGGGLVQAGGSLRLSCAASGRTLYFNAMAWYRQEPGKERELVADISIGGSTYYADSVKGRFTISRDNAKNTVYLQMNSLKPEDTAVYYLATDYLGGGKRYYYWGQGTQVTVSS”, the “polyreactivity (PSR sort gate)” value was “high polyreactivity”. With “QVQLVESGGGLVQAGGSLRLSCAASGRTLYFNAMGWYRQAPGKERELVADISIGGSTYYADSVKGRFTISRDNAKNTVYLQMNSLKPEDTAVYYCAANAHYYVSYAWYVDVDYWGQGTQVTVSS” the “polyreactivity (PSR sort gate)” value was “high polyreactivity”. In the case of “QVQLVESGGGLVQAGGSLRLSCAASGRTLYGYAMGWYRQAPGKERELVASIRSGGSTNYADSVKGSFTISRDNAKNTVYFQMNSLKQEYTAVYYCAAEPYYSYGYYHAHGRDVGYWGQGTQVTVSS”, the “polyreactivity (PSR sort gate)” value is reported as “low polyreactivity”. For “QVQLVESGGGLVQAGGSLRLSCAASGRTLYKYAMGWYRQAPGKERELVATISSGGRTNYADSVKGRFTISRDNAKNPVYLQMNSLKPEDTAVYYCAADVVRYYYTYDYWGQGTQVTVSS”, the “polyreactivity (PSR sort gate)” value was “low polyreactivity”. With “QVQLVESGGGLVQAGGSLRLSCAASGRTLYRNAMGWDRQAPGKERELVATITSGGSTYYADSVKGRFTISRDTAKNTVYLLMNSLKPEDTAVYYCNADWYWRVYWGQGTQVTVSS” the “polyreactivity (PSR sort gate)” value was “high polyreactivity”. In the case of “QVQLVESGGGLVQAGGSLRLSCAASGRTMDFNVMGWYRQAPGKERELVAAITWSGGSTYYSDSVKGRFTISRDNAKNTVYLQMNSLKPVDTAVYYCAKDLWYWARRYDYWGQGTQVTVSS”, the “polyreactivity (PSR sort gate)” value is reported as “high polyreactivity”. In the case of “QVQLVESGGGLVQAGGSLRLSCAASGRTNCEYTMGWYRKAPGKERELVAVITKSGGSTYYADSVKGRFTISRDNAKNTVYLQMNSLKPEDTAVYDCAARRYYYLNSRYGYWGQGTQVTVSS”, the “polyreactivity (PSR sort gate)” value is reported as “high polyreactivity”. With “QVQLVESGGGLVQAGGSLRLSCAASGRTRFYAMGWYRQPPGKEREMVAAISGSSGSTYYADSVKGRFTISRDNAKNTVYLQMNSLKPEDTAVYYCAADFWRFYYEYDYWGQGTQVTVSS” the “polyreactivity (PSR sort gate)” value was “low polyreactivity”. In the case of “QVQLVESGGGLVQAGGSLRLSCAASGRTRHGYTMGWYRQAPGKERELVATISSIGGSTYYADSLKGRFTISRDNAKNTVYLQMNSLKPEDTAVYYSNRGRARVIFSGMDYWGQGTQVTVSS”, the “polyreactivity (PSR sort gate)” value is reported as “low polyreactivity”. In the case of “QVQLVESGGGLVQAGGSLRLSCAASGRTSFHYAMGWYRQAPGKERELVAAINWNGGRTYYADSVKGRFTISRDNAKNTVYLQMNSLKPEDTAVYYCAARLSYLGGYDYWGQGTQVTVSS”, the “polyreactivity (PSR sort gate)” value is reported as “high polyreactivity”. In the case of “QVQLVESGGGLVQAGGSLRLSCAASGRTSFYYGMGWYRQAPGKERELVAGINYGGGSTYYADSVKGRFTISRDNAKNTVYLQMNSLKPEDTAVYYCNAGDGPDEEYDYWGQGTQVTVSS”, the “polyreactivity (PSR sort gate)” value is reported as “low polyreactivity”. For “QVQLVESGGGLVQAGGSLRLSCAASGRTSGAYAMGWYRQAPGKERELVAAISIAGITYADSVKGRFTISRDNAKNTVYLQMNSLKPEDTAVYYCAAYYLFRPYAQYDYWGQGTQVTVSS”, the “polyreactivity (PSR sort gate)” value was “low polyreactivity”. In the case of “QVQLVESGGGLVQAGGSLRLSCAASGRTSGGYAMGWYRQAPGNERELVASITWSGDTTYYADSVTGRFTISRDNAKNTVYLQMNSLKPEDTAVYYCATIPGYVYYWQYKYDYWGQGTQVTVSS”, the “polyreactivity (PSR sort gate)” value is reported as “low polyreactivity”. With “QVQLVESGGGLVQAGGSLRLSCAASGRTSGINAMGWYRQAPGKERELVAAISSGGRTYYADSVKGRFTISRDNAKNTVYLQMNSLKPEDTAVYYCAAVIHWSLYRRMEYWGQGTQVTVSS” the “polyreactivity (PSR sort gate)” value was “high polyreactivity”. In the case of “QVQLVESGGGLVQAGGSLRLSCAASGRTSGKNAMGSYRQATRKEREMVAAISSSGGSTYYADSVKGRFTISRDNAKNTVYLQMNSLKPEDTAVYYCAAKYFRKYSQIGPDMYYWGQGTQVTVSS”, the “polyreactivity (PSR sort gate)” value is reported as “high polyreactivity”. For “QVQLVESGGGLVQAGGSLRLSCAASGRTSIPYARGWYRQAPGKERELVAAISYSVGRTYYADSVKGRFTISRDNAKNTVYLQMNSLKPEDTAVYYCAAEYNGVVRDYDYWGQGTQVTVSS”, the “polyreactivity (PSR sort gate)” value was “low polyreactivity”. For “QVQLVESGGGLVQAGGSLRLSCAASGRTSIYNTMGWYRQAPGKERELVAAINPSGSTNYADSVKGRFTISRDNAKNTVYLQMNSLKPEDTAVYYCAAVVKWWGQSRYDYWGQGTQVTVSS”, the “polyreactivity (PSR sort gate)” value was “high polyreactivity”. In the case of “QVQLVESGGGLVQAGGSLRLSCAASGRTSKYYAMGWYRQAPGKERELVAAITGTGGSTYYADSVKGRFTISRDNAKNTVYLQMNSLKPEDTAVYYCAALRKSYTYDSWGQGTQVTVSS”, the “polyreactivity (PSR sort gate)” value is reported as “high polyreactivity”. For “QVQLVESGGGLVQAGGSLRLSCAASGRTSLRYAMGWYRQAPGKERELVAAITSSGATTYYADSVKGRFTISRDNAKNTVYLQMNSLKPEDTAVYYCAAVYSAKRGSGGFGYWGQGTQVTVSS”, the “polyreactivity (PSR sort gate)” value was “high polyreactivity”. In the case of “QVQLVESGGGLVQAGGSLRLSCAASGRTSPAYAMGWYRQAPGKERELVAAISRSGGRTNYADSVKGRFTISRDNAKNTVYLQMNSLKPEDTAVYYCAVPYWYLGDNSGHDPYYYWGQGTQVTVSS”, the “polyreactivity (PSR sort gate)” value is reported as “high polyreactivity”. For “QVQLVESGGGLVQAGGSLRLSCAASGRTSRSNAMGWYRQAPGKERELVAAISSGGSTYADSVKGRFTISRDNAKNTVYLQMNSLKPEDTAVYYCAARYRTRYAGYNYWGQGTQVTVSS”, the “polyreactivity (PSR sort gate)” value was “high polyreactivity”. For “QVQLVESGGGLVQAGGSLRLSCAASGRTSRSYTMGWYRQSPGKERELVAAITRGGRTYYADSVKGRFTISRDNAKNTVYLQMNSLKPEDTAVYYCATDRVQSYGYWGQGTQVTVSS”, the “polyreactivity (PSR sort gate)” value was “low polyreactivity”. For “QVQLVESGGGLVQAGGSLRLSCAASGRTSSANVMGGYRQAPGKDRELVAAISWSGGSTYYADSVKGRFTISRDNAKNTVYLQMNSRKPEDTAVYYCAADYYKYYYGGDQLSITRYDYWGQGTQVTVSS”, the “polyreactivity (PSR sort gate)” value was “low polyreactivity”. In the case of “QVQLVESGGGLVQAGGSLRLSCAASGRTSSSNAMGWYRQAPGKERELVATISRTGSTYYADSVKGRFTISRDNAKNTVYLQMNSLKPEDTSVYYCNRYFSEALLHGSCYNRYYYWGQGTQVTVSS”, the “polyreactivity (PSR sort gate)” value is reported as “low polyreactivity”. With “QVQLVESGGGLVQAGGSLRLSCAASGRTSVINAMGWYRQAPGKERELVATITWSGASTYYADSVKGRFTISRDNAKNTLYLQMNSLKPEVTAVYYCATDSAQYGYDYWGQGTQVTVSS” the “polyreactivity (PSR sort gate)” value was “low polyreactivity”. With “QVQLVESGGGLVQAGGSLRLSCAASGRTSVKYAMGWYRQAPGKERELVAAITYRGSSTYYADSVKGRFTISRDNAKNTVYLQMNSLKPEDTAVYYCAARPPLSGRYGYYYWGQGTQVTVSS” the “polyreactivity (PSR sort gate)” value was “high polyreactivity”. For “QVQLVESGGGLVQAGGSLRLSCAASGRTSVLYAMGWYRQAPGKERELVAAISRDGSTNYADSVKGRFTISRDNAKNTVYLQMNSLKPEDTAVYYCAAEVRGSYYLTGYDYWGQGTQVTVSS”, the “polyreactivity (PSR sort gate)” value was “high polyreactivity”. In the case of “QVQLVESGGGLVQAGGSLRLSCAASGRTSVRNAMGWYRQAPGKERELVAAISNGGRTNYADSVKGRFTISRDNAKNTVYLQMNSLKPEDTAVYYCAARGFWLYYHGGVRSGYDYWGQGTQVTVSS”, the “polyreactivity (PSR sort gate)” value is reported as “high polyreactivity”. In the case of “QVQLVESGGGLVQAGGSLRLSCAASGRTSVRYAMGWYRQAPGKERELVAAISWSGGSTYYADSVKGRFTISRDNAKNTVYLQMNSLKPEDTAVYDCNAQHARGYYYWGQGTQVTVSS”, the “polyreactivity (PSR sort gate)” value is reported as “low polyreactivity”. In the case of “QVQLVESGGGLVQAGGSLRLSCAASGRTSWVYAMGWYRQAPGKERELVASIRKRTVVYADSVKGRFTISRDNAKNTVYLQMNSLKPEDTAVYYCNADTTFYGYRTYRPENYWGQGTQVTVSS”, the “polyreactivity (PSR sort gate)” value is reported as “high polyreactivity”. For “QVQLVESGGGLVQAGGSLRLSCAASGRTSYINAMGWYRPAPGKERELVAAITVRAGRTYYADSVKGRFTISRDNANKTVYLQMNSLKPEDTAVYYCAAGVSEGSGDLYYWGQGTQVTVSS”, the “polyreactivity (PSR sort gate)” value was “low polyreactivity”. In the case of “QVQLVESGGGLVQAGGSLRLSCAASGRTSYRDAMGWYRQAPGKESEFVAAISKSGTSTYYADSVKGRFTISRDNAKNTVYVQMYRLKPEDTAVYYCAAITGVGLRVNSGIGFYYWGQGTQVTVSS”, the “polyreactivity (PSR sort gate)” value is reported as “high polyreactivity”.
